{"source": "patent US11180767B2", "about": "“Protease deficient filamentous fungal cells and methods of use thereof” (GLYKOS FINLAND OY, priority 2012, dated 2021)", "key": {"[1]": {"tested_on": "SIP purified proteases (PEP2, PEP3, PEP4, PEP5, GAP1, SLP2)", "assay": "Protease activity of SIP purified fractions against casein with inhibitors (EnzChek)", "assay_type": "biochemical, Trichoderma reesei", "settings": "pH 5.5", "procedure": "Protease activity was then tested against casein both in the presence and absence of protease inhibitors. Protease activity against casein was tested using the EnzChek protease assay kit (Molecular probes #E6638, green fluorescent casein substrate). The working stock solution was prepared by diluting the stock to 10 μg ml in 50 mM sodium citrate, pH 5.5. The purified protease fractions (10 μl) were diluted with […] of sodium citrate, pH 5.5. 100 μl of the diluted substrate was combined with the diluted protease fractions in a 96 well sample plate. The plate was then covered and kept at 37° C. for one to three hours. Fluorescence readings were taken at one, two, and three hours with a Varioskan fluorescent plate reader (Thermo Scientific) using 485 nm excitation and 530 nm emission.\nThe SIP inhibitor peptide, pepstatin A, LIP peptide, SBTI, and chymostatin were used as inhibitors. […] SIP, LIP, and pepstatin A were used at a concentration of 60 μM, and SBTI was used at a concentration of 200 μg/ml."}, "green fluorescent casein": {"tested_on": "green fluorescent casein", "assay": "Total protease activity of culture supernatants against fluorescent casein", "assay_type": "biochemical", "settings": "1 L fermentor, pH 5.5, casein FL", "procedure": "The total protease activity of culture supernatant from the quadruple deletion strain M307 was then measured and compared with culture supernatants from the triple deletion strain M277 and the wild type strain M124. Each strain was grown in 2 liter shake flasks with 300 ml TrMM containing 40 g/l lactose, 20 g/l spent grain extract, and 100 mM PIPPS at pH 5.5. Day 7 supernatant samples were taken for total protease assay. The total protein concentrations of the supernatants were measured using the BCA assay with bovine immunoglobulin as the standard. The supernatants were diluted serially 1:2 in sodium citrate buffer at pH 5.5. […] The fluorescence was measured after 1 hour at 485 nm excitation and 530 nm emission.\nThe full length antibody yield calculated was 20% higher in the gap1 deletion strain from the day 6 sample. […] From the fermentor supernatants, the total protease activity against casein was measured. […]\nThe protein concentrations were determined from all supernatant samples from day 2-7. […] The fluorescence from the wells was measured after 2, 3, and 4 hours. The readings were done on the Varioskan fluorescent plate reader using 485 nm excitation and 530 nm emission.\nThe protease activity from the cultivations listed in Table 22.4 was measured in order to determine how the total protease activities were affected by the RNAi. […]"}, "[2]": {"tested_on": "proteases in supernatant from the 6-fold protease deletion strain M400", "assay": "Protease stability of proteins spiked into supernatant of the 6-fold protease deletion strain", "assay_type": "biochemical, Trichoderma reesei", "settings": "pepstatin A 50 μM; SBTI 0.2 mg/ml; pH 4.2, 20 hours, 37°C", "procedure": "The protease stability of the model proteins IGF1, hGH, and IFNα2b were analyzed by spiking them into supernatant from the 6-fold protease deletion strain (Δpep1Δtsp1Δslp1Δgap1Δgap2Δpep4) M400. The supernatant was collected from a large shake flask culture CAH15. The undiluted supernatant from the shake flask cultivation CAH15 was incubated with the purified model proteins with and without pepstatin A (50 μM) and SBTI (0.2 mg/ml) inhibitors for 20 hours at 37° C. The 5 day culture supernatant pH was around 4.2. The reaction containing 0.05 μg μl of model protein was sampled after 20 hours. 50 mM sodium citrate pH 4.0 spiked with model proteins (0.05 g 1) was used as a buffer control.\nFrom each reaction 10 μl was loaded into an 18% SDS PAGE gel and run for 30 minutes at 200 V. The proteins in the gel were then transferred to nitrocellulose for immunoblotting. The nitrocellulose membrane was blocked for 1 hour at room temperature with 5% milk in TBST buffer. The individual blots were probed with their specific primary antibody to detect the appropriate model protein for 1 hour at room temperature on a shaker. The mouse anti-IGF1 antibody (R&D systems #mab291) was used at 2 μg/ml diluted in TBST. The mouse anti-rhGH antibody (Abeam #ab51232) was used at 2 μg/ml diluted in TBST. The mouse anti-IFNα2b antibody (Abeam #ab9386) was used at 1 μg/ml diluted in TBST. […]"}}}
{"molecule": "SBTI: soybean trypsin inhibitor, trypsin and subtilisin inhibitor (protein) DFVLDNEGNPLENGGTYYILSDITAFGGIRAAPTGNERCPLTVVQSRNELDKGIGTIISSPYRIRFIAEGHPLSLKFDSFAVIMLCVGIPTEWSVVEDLPEGPAVKIGENKDAMDGWFRLERVSDDEFNNYKLVFCPQQAEDDKCGDIGISIDHDDGTRRLVVSKNKPLVVQFQKLDKESL", "values": [{"measurement": "proteases inhibited", "setting": "[1]; SIP, LIP, pepstatin A 60 μM, SBTI 200 μg/ml", "value": "able to inhibit SLP2 and PEP4"}, {"measurement": "inhibition of SIP purified protease activity against casein", "setting": "[1]; FIG. 11", "value": "able to inhibit the SLP2 protease"}, {"measurement": "protease activity of M507 culture supplemented with inhibitor", "setting": "green fluorescent casein", "value": "protease activity also dropped from day 6 until day 8"}, {"measurement": "stabilisation of hGH, IFNα2b and IGF1 in supernatant", "setting": "[2]", "value": "only a small benefit for product stability"}]}
